From patent publication US9409976B2, “CDIM binding proteins and uses thereof” (IGM BIOSCIENCES, INC., priority 2012, dated 2016)
Entries after “also recorded” stand apart in the source; their conditions may differ.

Assays:
[1] = ELISA binding to non-CDIM antigen chondroitin sulfate; conditions: maximal reaction (OD450 nm), IgM at 10 μg/ml
[2] = ELISA binding to non-CDIM antigen heparan sulfate; conditions: maximal reaction (OD450 nm), IgM at 10 μg/ml
Method: (§1) This example describes the binding specificity of the CDIM binding proteins for antigens other than CDIM. The antibodies were purified by affinity chromatography. Antibodies were tested across a broad dose range against a panel of antigens available in commercially available ELISA kits. ELISA plates pre-coated with the antigens, ssDNA (Inova Diagnostics, Inc, San Diego, Calif.), dsDNA (Inova Diagnostics, Inc., San Diego, Calif.), cardiolipin (Inova Diagnostics, Inc., San Diego, Calif.) MDA-LDL (malondialdehyde modified low density lipoprotein) (Rocky Mountain Diagnostics, Colorado Springs, Colo.) were purchased from various vendors. Lipid A (Avanti Polar Lipids, Alabaster, Ala.) was purchased as an antigen, dissolved in ethanol and diluted in 100 mM Na carbonate buffer at pH 9.5 prior to coating onto ELISA plates. Anti-CDIM antibodies were used at concentrations indicated and ELISA was performed according to manufacturers recommendations. Briefly, plates were blocked with BSA-milk powder for 1 hour, followed by washing. The disclosed antibodies were added at the concentrations indicated. The antibodies were allowed to bind for 1.5 hours at room temperature followed by a wash step. The HRP-conjugated anti-human IgM antibody was added, followed by substrate addition. Results were quantified using absorbance at 450 nm (Bio-Tek Synergy HT). […]

Human pro-B NALM-6 cells = test: Human complement dependent cytotoxicity (CDC) assay, CCK8; format: cell-based; conditions: Nalm-6 cells with human complement, 24 hours, supernatant containing expressed antibody
Source text: “Complement-dependent cytotoxicity” or “CDC” refers to the lysis of a target cell in the presence of complement. Activation of the classical complement pathway is initiated by the binding of the first component of the complement system (CIq) to antibodies, which are bound to their cognate antigen. To assess complement activation, a CDC assay, as described in Hinton et al, J. Immunol. 2006 Jan. 1; 176(1):346-56, may be performed. Briefly, this example describes how the cytotoxicity of the CDIM binding proteins was investigated. Human pro-B NALM-6 cells (50,000) were plated in a 96-well flat bottom microtiter plate. […] After 24 hours, a colorimetric substrate CCK8 was added for 3 hours and then the optical density (OD) was measured at 450 nm wavelength on a Microtiter Plate Reader. Quantification of the increase in OD is directly proportional to viable proliferating NALM-6 cells. […] The IC50 was calculated for each antibody using the same approach as described above.
TABLE 2 summarizes the data shown in FIG. 6 and FIGS. 7A-7F for the CDIM binding proteins comprising variable heavy chains H1, H2, H3, H4, H5, H6, H7, H9, H10, H11, H12, H13, H14, H15, H16, H17, H18, H19, H20, and H21, respectively. The ELISA value refers to the concentration of IgM determined in the conditioned media following transient transfection of IgM heavy and light chains. […]

[3] = ELISA binding to panel of antigens other than CDIM (FIGS. 8 and 9); conditions: broad dose range, absorbance at 450 nm, listed as MAb 216
Source text: FIG. 8, panels A-E depict ELISA based binding data that is representative of the CDIM binding proteins to antigens other than CDIM. Results using the antigens single stranded DNA (ssDNA), double stranded DNA (dsDNA), lipid A, cardiolipin, and maleonaldehyde LDL (MDA-LDL) are shown in panels A-E, respectively.
FIG. 9, panels A-F depict ELISA based binding data that is representative of the CDIM binding proteins to antigens other than CDIM. Results using the antigens single stranded DNA (ssDNA), double stranded DNA (dsDNA), lipopolysaccharide, cardiolipin, chondoitrin and heparan, are shown in panels A-F, respectively.
This example describes the binding specificity of the CDIM binding proteins for antigens other than CDIM. The antibodies were purified by affinity chromatography. Antibodies were tested across a broad dose range against a panel of antigens available in commercially available ELISA kits. ELISA plates pre-coated with the antigens, ssDNA (Inova Diagnostics, Inc, San Diego, Calif.), dsDNA (Inova Diagnostics, Inc., San Diego, Calif.), cardiolipin (Inova Diagnostics, Inc., San Diego, Calif.) MDA-LDL (malondialdehyde modified low density lipoprotein) (Rocky Mountain Diagnostics, Colorado Springs, Colo.) were purchased from various vendors. […] Results were quantified using absorbance at 450 nm (Bio-Tek Synergy HT).

ds DNA = test: ELISA binding to non-CDIM antigen dsDNA; conditions: maximal reaction (OD450 nm), IgM at 10 μg/ml
Method: as §1

ss DNA = test: ELISA binding to non-CDIM antigen ssDNA; conditions: maximal reaction (OD450 nm), IgM at 10 μg/ml
Method: as §1

[4] = ELISA binding to non-CDIM antigen LPS; conditions: maximal reaction (OD450 nm), IgM at 10 μg/ml
Method: as §1

[5] = ELISA binding to non-CDIM antigen cardiolipin; conditions: maximal reaction (OD450 nm), IgM at 10 μg/ml
Method: as §1

B1: hm216: naturally occurring human monoclonal IgM CDIM binding antibody (SEQ ID NO: 108), used as experimental reference antibody (protein)
chain: QVQLQQWGAGLLKPSETLSLTCAVYGGSFSGYYWSWIRQPPGKGLEWIGEINHSGSTNYNPSLKSRVTISVDTSKNQFSLKLSSVTAADTAVYYCARARTARGSSIFDYWGQGTLVTVSSGSASAPTLFPLVSCENSPSDTSSVAVGCLAQDFLPDSITFSWKYKNNSDISSTRGFPSVLRGGKYAATSQVLLPSKDVMQGTDEHVVCKVQHPNGNKEKNVPLPVIAELPPKVSVFVPPRDGFFGNPRKSKLICQATGFSPRQIQVSWLREGKQVGSGVTTDQVQAEAKESGPTTYKVTSTLTIKESDWLSQSMFTCRVDHRGLTFQQNASSMCVPDQDTAIRVFAIPPSFASIFLTKSTKLTCLVTDLTTYDSVTISWTRQNGEAVKTHTNISESHPNATFSAVGEASICEDDWNSGERFTCTVTHTDLPSPLKQTISRPKGVALHRPDVYLLPPAREQLNLRESATITCLVTGFSPADVFVQWMQRGQPLSPEKYVTSAPMPEPQAPGRYFAHSILTVSEEEWNTGETYTCVVAHEALPNRVTERTVDKSTGKPTLYNVSLVMSDTAGTCY
Chondroitin Sulfate relative reactivity [1]: ++++ (The (+), (++), (+++) and (++++) scores are given for maximal ELISA values of 0.3 to 1, 1 to 2, 2 to 3 and above 3, respectively) | Heparan Sulfate relative reactivity [2]: ++++ (The (+), (++), (+++) and (++++) scores are given for maximal ELISA values of 0.3 to 1, 1 to 2, 2 to 3 and above 3, respectively) | Cytotoxicity IC50 (Human pro-B NALM-6 cells): 1.762 µg/mL | Binding to antigens other than CDIM [3]: binds to all the antigens tested; also recorded: binds to all of the antigens across a broad dose range | ds DNA relative reactivity (ds DNA): ++++ (The (+), (++), (+++) and (++++) scores are given for maximal ELISA values of 0.3 to 1, 1 to 2, 2 to 3 and above 3, respectively) | ss DNA relative reactivity (ss DNA): ++++ (The (+), (++), (+++) and (++++) scores are given for maximal ELISA values of 0.3 to 1, 1 to 2, 2 to 3 and above 3, respectively) | LPS relative reactivity [4]: ++++ (The (+), (++), (+++) and (++++) scores are given for maximal ELISA values of 0.3 to 1, 1 to 2, 2 to 3 and above 3, respectively) | Cardiolipin relative reactivity [5]: +++ (The (+), (++), (+++) and (++++) scores are given for maximal ELISA values of 0.3 to 1, 1 to 2, 2 to 3 and above 3, respectively)
